According to IntAct's records for PubMed 17064696:

B1: Sphingosine kinase 1 (Homo sapiens), Q9NYA1 (parent)
chain: MDPAGGPRGVLPRPCRVLVLLNPRGGKGKALQLFRSHVQPLLAEAEISFTLMLTERRNHARELVRSEELGRWDALVVMSGDGLMHEVVNGLMERPDWETAIQKPLCSLPAGSGNALAASLNHYAGYEQVTNEDLLTNCTLLLCRRLLSPMNLLSLHTASGLRLFSVLSLAWGFIADVDLESEKYRRLGEMRFTLGTFLRLAALRTYRGRLAYLPVGRVGSKTPASPVVVQQGPVDAHLVPLEEPVPSHWTVVPDEDFVLVLALLHSHLGSEMFAAPMGRCAAGVMHLFYVRAGVSRAMLLRLFLAMEKGRHMEYECPYLVYVPVVAFRLEPKDGKGVFAVDGELMVSEAVQGQVHPNYFWMVSGCVEPPPSWKPQQMPPPEEPL

Variants of: B1
Details: with catb_human CTSB

Variant | effect of a mutation on the interaction
N121E | decreasing interaction

Variants of: B1
Details: with catb_human CTSB
Remark: another data set of the same source

Variant | effect of a mutation on the interaction
H122Y | decreasing interaction

Variants of: B1
Details: with catb_human CTSB
Remark: another data set of the same source

Variant | effect of a mutation on the interaction
Y123A | decreasing interaction
